From US7271143B1, “Peptides for regulation of urokinase (uPA) and tissue type (tPA) plasminogen activator and method of optimizing therapeutic efficacy” (Thrombotech Ltd., priority 2001, dated 2007)
Where two headings read alike, the source gives them in different places. Ends that are not written are not given here.

Assays:
[1] = in vivo; cited from earlier work
[2] = in vivo; cited from earlier work; remark: listed apart in the source
[3] = tested on: isolated rat aorta rings; test: PE-induced contraction of isolated rat aorta rings; type: cell-based
Experimental: FIG. 1A is a diagram describing the results of experiments on the effect of tPA on PE-induced contraction of isolated rat aorta rings. Contraction of aortic rings was induced by increasing the concentrations of phenylephrine (PE), in the absence of tPA (full triangles) or in the presence of 1 nM (filled squares) or 20 nM tPA (empty squares).
FIG. 1B describes the results of experiments in which the contraction of aortic rings was induced in the absence of TNK-tPA (filled triangles), in the presence of 1 nM tPA (filled squares) or 20 nM tPA (empty squares).
FIG. 4 is a graph describing the effect of tPA on phenylepbrine-induced contraction of isolated rat aorta rings in vitro. The contraction of the aorta rings was induced by varying concentrations of phenylephrine in the absence of tPA (filled triangles), in the presence of 1 nM of TA (filled squares) or in the presence of 10 nM tPA (empty squares). The experiments were performed according to procedures described earlier by Haj-Yehia A et al., FASEB J, 2000, 14:1411–1422.
(§1) The effect of TNK-tPA on PE-induced contraction was compared with the effect of tPA, in the isolated aorta rings. The experimental procedure followed has been described earlier (Haj-Yehia A, Nassar T, Sachais B, Kuo A, Bdeir K., Al-Mehdi A-B, Mazar A, Cines D, Higazi A A-R. Urokinase-derived peptides regulate vascular smooth muscle contraction in vitro and in vivo. FASEB J 2000; 14:1411–1422.
FIG. 4 describes a graph describing the effect of TA on phenylephrine-induced contraction of isolated rat aorta rings in vitro. The contraction of the aorta rings was induced by varying concentrations of phenylephrine in the absence of tPA (filled triangles), in the presence of 1 nM of tPA (filled squares) or in the presence of 10 nM TA (empty squares). The experiments were performed according to procedures described earlier by Haj-Yehia A et al., FASEB J, 2000, 14:1411–1422.

[4] = target: TNK-tPA (Homo sapiens, UniProt P00750, H332A/K331A/N152Q/R333A/R334A/T138N); test: Effect on vasoactivity of TNK-tPA (PE-induced contraction of aorta rings); type: cell-based
Experimental: (§2) FIG. 2 is a graphical representation of the results obtained in experiments to study the effect of PAI-1 on the vasoactivity of tPA. The EC50 of PE was determined in the absence (Control) or presence of 1 nM tPA, 20 nM tPA, 1 nM tPA and an equimolar concentration of PAI-1, 20 nM tPA and an equimolar concentration of PAI-1, 1 nM tPA and 2 μM of SEQ ID NO:1 or 20 nM tPA and 2 μM of SEQ ID NO:1.
The effect of TNK-tPA on PE-induced contraction was compared with the effect of tPA, in the isolated aorta rings.
PAI-1 interacts with tPA through independent sites; the catalytic site and a docking site, present in the amino acids […] to 299. The PAI-1 docking site is mutated in TNK-tPA. […] Madison E L, Goldsmith W. Gething M-J, H., Sambrook J F, Gerard R D. Restoration of serine protease-inhibitor interaction by protein engineering. Journal of Biological Chemistry. 1990; 265:21423–21426.
(§3) The effect of revertase and TNK-tPA on the PE induced vasocontraction was studied in presence or absence of the LRP antagonist (RAP) or anti LRP antibodies.

[5] = target: T1, tPA (Homo sapiens, UniProt P00750); test: Effect on vasoactivity of tPA (PE-induced contraction of aorta rings); type: cell-based
Experimental: as §2
FIG. 3 is a graphical representation of the results obtained in experiments to study the effect of RAP and anti-LRP antibodies on the vasoactivity of tPA. The EC50 of PE was determined in the absence (Control) or presence of 1 nM tPA, 20 nM tPA, 1 nM tPA and an equimolar concentration of PAI-1, 20 nM tPA and an equimolar concentration of PAI-1, 1 nM tPA and 2 μM of SEQ ID NO:1 or 20 nM tPA and 2 μM of SEQ ID NO:1.
FIG. 6 is a bar diagram describing the results of studies done on the effect of PAI-1 derived peptide on tPA vasoactivity. The constriction of aorta rings was induced by increasing the concentrations of phenylepbrine in the absence or presence of 1 nM tPA, 1 nM tPA and 1 OM SEQ ID NO:[…] tPA or 10 nM tPA and 1 OM of SEQ ID NO:1.
as §1
In an attempt to understand the basis for the modification in the vasoactivity of TNK-tPA, the role of the PAI-1 docking site in the process was examined.
as §3
(§4) FIG. 6 is a bar diagram describing the results of studies done on the effect of PAI-1 derived peptide on tPA vasoactivity. The constriction of aorta rings was induced by increasing the concentrations of phenylephrine in the absence or presence of 1 nM tPA, 1 nM tPA and 1 OM, 10 nM tPA or 10 nM tPA and 1 OM.

[6] = target: T1, tPA; test: tPA mediated clot lysis / chromogenic assay of tPA activity; type: biochemical
Experimental: (§5) FIG. 7 is a bar diagram describing the results of experiments on the effect of PAI-1 derived peptide on tPA mediated clot lysis. The capacity of TA to induce clot lysis was determined in the presence and absence of 1 OM of SEQ ID NO:1. In these experiments, blood from volunteers was allowed to clot at room temperature for one hour, the blood clot was separated from the plasma, placed on absorbing paper to remove all the serum and cut into several pieces. The pieces were weighed, and placed in PBS buffer alone or containing 100 nM tPA, with or without 1 OM of SEQ ID NO:1. After incubation for 3 hours at room temperature, the thrombi are separated from the medium, dried and weighed.
as §5, with “of tPA” for “of TA”, “of 10 M.” for “of 1 OM of SEQ ID NO:1.”, “without 10M.” for “without 1 OM of SEQ ID NO:1.”, “weighed. […]” for “weighed.”

[7] = target: scuPA (Homo sapiens, UniProt P00749); test: Effect on fibrinolytic activity of scuPA (blood clot lysis); type: biochemical
[8] = target: T2, uPA (Homo sapiens, UniProt P00749); test: Effect on fibrinolytic activity of uPA; type: biochemical
[9] = target: T2, uPA; test: Effect on vasoactivity of uPA (PE-induced contraction of aorta rings); type: cell-based
Experimental: FIG. 5 is a bar diagram describing the results of experiments on the vasoactivity of uPA and tPA in the presence or absence of PAI-1, for example, the effect of 2 nM uPA or 1 nM tPA on phenylephrine induced vasoconstriction was determined in the presence or absence of equimolar concentrations of PAI-1.
FIG. 5 describes a bar diagram describing the results of experiments on the vasoactivity of uPA and tPA in the presence of absence of PAI-1, for example, the effect of 2 nM uPA or 1 nM tPA on phenylephrine induced vasoconstriction was determined in the presence or absence of equimolar concentrations of PAI-1.
as §4

TNK-tPA, sequence (P00750 36-562 T138N/N152Q/K331A/H332A/R333A/R334A): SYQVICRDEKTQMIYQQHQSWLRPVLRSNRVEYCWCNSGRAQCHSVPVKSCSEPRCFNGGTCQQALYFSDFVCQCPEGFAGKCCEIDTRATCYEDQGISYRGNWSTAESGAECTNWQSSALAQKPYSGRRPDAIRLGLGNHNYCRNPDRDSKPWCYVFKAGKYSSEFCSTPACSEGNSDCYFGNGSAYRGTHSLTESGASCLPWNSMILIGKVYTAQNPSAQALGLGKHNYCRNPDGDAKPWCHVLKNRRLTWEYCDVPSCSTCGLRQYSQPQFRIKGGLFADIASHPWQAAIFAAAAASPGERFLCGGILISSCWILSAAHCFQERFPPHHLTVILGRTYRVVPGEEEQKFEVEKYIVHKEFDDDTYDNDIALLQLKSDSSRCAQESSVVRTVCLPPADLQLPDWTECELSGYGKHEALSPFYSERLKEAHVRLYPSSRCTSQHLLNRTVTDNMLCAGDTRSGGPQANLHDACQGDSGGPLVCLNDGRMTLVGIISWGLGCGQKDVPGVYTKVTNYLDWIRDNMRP
T1 sequence (P00750 36-562): as the sequence (P00750 36-562 T138N/N152Q/K331A/H332A/R333A/R334A) above, with N103T, Q117N, A296K, A297H, A298R, A299R counted along it

tPA: tissue-type plasminogen activator, single-chain serine protease; rtPA is the recombinant form
incidence of subsequent symptomatic intracerebral hemorrhage [1]: approximately six | patients with symptomatic intracerebral hemorrhage who die [1]: approximately fifty | non-cerebral bleeding episodes [2]: 5.94% | affinity of first (fast) epitope, inhibits PE induced vasoconstriction [3]: around 1 nM | affinity of second epitope, stimulates PE-induced vasoconstriction [3]: around 20 nM | effect on PE-induced vasoconstriction ([3]; 1 nM): inhibited | effect on PE-induced vasoconstriction ([3]; 1 nM, listed as TA): inhibits | effect on PE-induced vasoconstriction ([3]; 20 nM): stimulated | capacity to induce vasodilatation ([3]; FIG. 4): has the capacity to induce vasodilatation | effect on phenylephrine-induced vasoconstriction ([3]; increased tPA concentrations (printed 1 nM; FIG. 4 uses 10 nM)): stimulated

rRAP: LRP antagonist, recombinant receptor associated protein [reference compound]
effect on vasoactive effect of TNK-tPA ([4]; anti-LRP antibodies or LRP antagonist): totally abolished | effect on vasoactive effect of tPA [5]: totally abolished

EEIIMD [SEQ ID NO:1, six amino acid peptide corresponding to residues 350 to 355 of PAI-1]
effect on fibrinolytic activity of tPA [6]: no effect | effect on catalytic activity of tPA (clot lysis, FIG. 7) ([6]; 100 nM tPA, peptide 10M (so in the source), 3 hours, room temperature): no significant effect | effect on fibrinolytic activity of scuPA [7]: no effect | effect on fibrinolytic activity of scuPA ([7]; listed as 6 amino acid peptide): stimulates synergistically | effect on vasoactive effect of TNK-tPA ([4]; 2 μM peptide): unaffected | effect on vasoactive effect of TNK-tPA ([4]; 10 μM peptide): abolished | effect on vasoactive effect of TNK-tPA ([4]; 5 molar concentration of the peptide): abolished | effect on vasoactive effect of TNK-tPA ([4]; equimolar concentration of peptide): unaffected | effect on vasoactive effects of rtPA ([5]; 2 μM peptide): abolished | effect on enhancing effect of tPA on phenylephrine-induced vasoconstriction in aorta ring cultures ([5]; concentration not given): abolishes | effect on enhancing effect of tPA on phenylephrine induced vasoconstriction ([5]; peptide at 10M (so in the source)): abolished | effect on fibrinolytic activity of uPA [8]: no effect | effect on enhancing effect of uPA on phenylephrine-induced vasoconstriction ([9]; concentration not given): abrogates | effect on enhancing effect of uPA on phenylephrine induced vasoconstriction ([9]; same as on tPA, peptide at 10M (so in the source)): the same effect | effect alone on contraction of aorta rings ([3]; without tPA or uPA): Neither PAI-1 nor alone had any effect

CNC[C@H](O)c1cccc(O)c1 [PE, phenylephrine, reference compound]
EC50 ([3]; Rattus norvegicus, control, before addition of plasminogen activator, read-out: EC50 of PE-induced constriction): 34 nM
